# From patent publication US20150203577A1 (Chugai, published 2015)
# Residue numbers refer to the chain shown, from its start. Values joined by “and” are separate entries in the source; they are usually repeats but may differ in a detail not shown here. Equal entries are not always repeated.
# T1: mouse FcγRII extracellular domain, C-terminally His-tagged (mouse, UniProt P08101 30-210)
# T1 construct: the whole entry is named; also called mFcγRII; mFcgRII
# T1 sequence: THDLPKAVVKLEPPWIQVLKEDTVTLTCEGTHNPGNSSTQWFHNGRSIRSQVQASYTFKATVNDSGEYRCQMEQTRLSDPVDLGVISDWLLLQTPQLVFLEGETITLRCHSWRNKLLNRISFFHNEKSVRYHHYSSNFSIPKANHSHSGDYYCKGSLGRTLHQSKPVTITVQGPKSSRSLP
# T2: mouse FcγRIII extracellular domain, C-terminally His-tagged (mouse, UniProt P08508 31-215)
# T2 construct: the whole entry is named; also called mFcγRIII; mFcgRIII
# T2 chain: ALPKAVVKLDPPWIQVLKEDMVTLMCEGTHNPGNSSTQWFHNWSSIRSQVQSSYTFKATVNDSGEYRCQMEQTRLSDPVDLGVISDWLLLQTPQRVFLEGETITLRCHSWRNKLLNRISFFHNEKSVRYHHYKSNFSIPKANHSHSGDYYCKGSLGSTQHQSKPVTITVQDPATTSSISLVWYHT
# T3: mouse FcγRII (mouse, UniProt P08101 30-210)
# T3 construct: Extracellular domain with C-terminal His tag, made in FreeStyle 293 cells; also called mFcγRII; mFcgRII
# T3 sequence: T1 sequence
# T4: mouse FcγRIII (mouse, UniProt P08508 31-215)
# T4 construct: Extracellular domain with C-terminal His tag, made in FreeStyle 293 cells; also called mFcγRIII; mFcgRIII
# T4 chain: T2 chain
# T5: mouse FcγRII extracellular domain, C-terminal His tag (mouse, UniProt P08101 30-210)
# T5 construct: Whole entry named; also called mFcγRII; mFcgRII
# T5 sequence: T1 sequence
# T6: mouse FcγRIII extracellular domain, C-terminal His tag (mouse, UniProt P08508 31-215)
# T6 construct: Whole entry named; also called mFcγRIII; mFcgRIII
# T6 chain: T2 chain
# B1: H237-MB623/MRAL-k0 (antibody, mouse IgG1, kappa)
# heavy: QVQLQESGPGLVKPSETLSLTCAVSGHSISHDHAWSWVRQPPGEGLEWIGFISYSGITNYNPSLQGRVTISRDNSKNTLYLQMNSLRAEDTAVYYCARSLARTTAMDYWGEGTLVTVSSAKTTPPSVYPLAPGSAAQTNSMVTLGCLVKGYFPEPVTVTWNSGSLSSGVHTFPAVLQSDLYTLSSSVTVPSSTWPSETVTCNVAHPASSTKVDKKIVPRDCGCKPCICEAYEVELVFIFPPKPKDVLTITLTPKVTCVVVDISKDDPEVQFSWFVDDVEVHTAQTQPREEQFNSTFRSVSELPIMHQDWLNGKEFKCRVNSAAFPAPIEKTISKTKGRPKAPQVYTIPPPKEQMAKDKVSLTCMITDFFPEDITVEWQWNGQPAENYKNTQPIMDTDGSYFVYSKLNVQKSNWEAGNTFTCSVLHEGLHNHHTEKSLSHSPGK
# light: not shown
# notes: copies: 2 + 2
# B2: H237-MB594/MRAL-k0 (antibody, mouse IgG1, kappa)
# heavy: B1 heavy with A230V, Y231P, V233E, L235S
# light: not shown
# notes: copies: 2 + 2
# B3: H237-MB645/MRAL-k0 (antibody, mouse IgG1, kappa)
# heavy: B1 heavy with A230V, L235Y
# light: not shown
# notes: copies: 2 + 2
# B4: H237-MB599/MRAL-k0 (antibody, mouse IgG1, kappa)
# heavy: B1 heavy with A230V, Y231P, V233E, E234S, L235F
# light: not shown
# notes: copies: 2 + 2
# B5: H237-MB600/MRAL-k0 (antibody, mouse IgG1, kappa)
# heavy: B1 heavy with A230V, Y231P, V233E, E234S, L235W
# light: not shown
# notes: copies: 2 + 2
# B6: H237-MB601/MRAL-k0 (antibody, mouse IgG1, kappa)
# heavy: B1 heavy with A230V, Y231P, V233E, E234S, L235S, F237D
# light: not shown
# notes: copies: 2 + 2
# B7: H237-MB602/MRAL-k0 (antibody, mouse IgG1, kappa)
# heavy: B1 heavy with A230V, Y231P, V233E, E234D, L235S
# light: not shown
# notes: copies: 2 + 2
# B8: H237-MB603/MRAL-k0 (antibody, mouse IgG1, kappa)
# heavy: B1 heavy with A230V, Y231P, E234D, L235F
# light: not shown
# notes: copies: 2 + 2
# B9: H237-MB604/MRAL-k0 (antibody, mouse IgG1, kappa)
# heavy: B1 heavy with A230V, Y231P, E234D, L235W
# light: not shown
# notes: copies: 2 + 2
# B10: H237-MB605/MRAL-k0 (antibody, mouse IgG1, kappa)
# heavy: B1 heavy with A230V, Y231P, E234D, L235S, F237D
# light: not shown
# notes: copies: 2 + 2
# B11: H237-MB607/MRAL-k0 (antibody, mouse IgG1, kappa)
# heavy: B1 heavy with E229T, A230V, Y231P, V233E, L235E
# light: not shown
# notes: copies: 2 + 2
# B12: H237-MB608/MRAL-k0 (antibody, mouse IgG1, kappa)
# heavy: B1 heavy with E229T, A230V, Y231P, L235E, F237D
# light: not shown
# notes: copies: 2 + 2
# B13: H237-MB609/MRAL-k0 (antibody, mouse IgG1, kappa)
# heavy: B1 heavy with E229T, A230V, Y231P, L235E, S263M
# light: not shown
# notes: copies: 2 + 2
# B14: H237-MB611/MRAL-k0 (antibody, mouse IgG1, kappa)
# heavy: B1 heavy with E229T, A230V, Y231P, V233E, E234D, L235E
# light: not shown
# notes: copies: 2 + 2
# B15: H237-MB612/MRAL-k0 (antibody, mouse IgG1, kappa)
# heavy: B1 heavy with E229T, A230V, Y231P, E234D, L235E, F237D
# light: not shown
# notes: copies: 2 + 2
# B16: H237-MB613/MRAL-k0 (antibody, mouse IgG1, kappa)
# heavy: B1 heavy with E229T, A230V, Y231P, E234D, L235E, S263M
# light: not shown
# notes: copies: 2 + 2
# B17: H237-MB614/MRAL-k0 (antibody, mouse IgG1, kappa)
# heavy: B1 heavy with E229T, A230V, Y231P, V233E, L235D
# light: not shown
# notes: copies: 2 + 2
# B18: H237-MB615/MRAL-k0 (antibody, mouse IgG1, kappa)
# heavy: B1 heavy with E229T, A230V, Y231P, L235D, F237D
# light: not shown
# notes: copies: 2 + 2
# B19: H237-MB616/MRAL-k0 (antibody, mouse IgG1, kappa)
# heavy: B1 heavy with E229T, A230V, Y231P, L235D, S263M
# light: not shown
# notes: copies: 2 + 2
# B20: H237-MB617/MRAL-k0 (antibody, mouse IgG1, kappa)
# heavy: B1 heavy with E229T, A230V, Y231P, V233E, E234S, L235D, F237D
# light: not shown
# notes: copies: 2 + 2
# B21: H237-MB618/MRAL-k0 (antibody, mouse IgG1, kappa)
# heavy: B1 heavy with E229T, A230V, Y231P, V233E, E234D, L235D
# light: not shown
# notes: copies: 2 + 2
# B22: H237-MB619/MRAL-k0 (antibody, mouse IgG1, kappa)
# heavy: B1 heavy with E229T, A230V, Y231P, E234D, L235D, F237D
# light: not shown
# notes: copies: 2 + 2
# B23: H237-MB620/MRAL-k0 (antibody, mouse IgG1, kappa)
# heavy: B1 heavy with E229T, A230V, Y231P, E234D, L235D, S263M
# light: not shown
# notes: copies: 2 + 2
# B24: H237-MB621/MRAL-k0 (antibody, mouse IgG1, kappa)
# heavy: B1 heavy with E229T, A230V, Y231P, E234D, L235E
# light: not shown
# notes: copies: 2 + 2
# B25: H237-MB622/MRAL-k0 (antibody, mouse IgG1, kappa)
# heavy: B1 heavy with E229T, A230V, Y231P, E234D, L235D
# light: not shown
# notes: copies: 2 + 2
# B26: H237-MB676/MRAL-k0 (antibody)
# heavy: B1 heavy with A230P, Y231N, L235K
# light: not shown
# notes: copies: 2 + 2
# B27: H237-MB678/MRAL-k0 (antibody)
# heavy: B1 heavy with A230V, Y231K, L235D
# light: not shown
# notes: copies: 2 + 2
# B28: H237-MB679/MRAL-k0 (antibody)
# heavy: B1 heavy with A230D, Y231K, L235D
# light: not shown
# notes: copies: 2 + 2
# B29: H237-MB680/MRAL-k0 (antibody)
# heavy: B1 heavy with A230N, Y231K, L235D
# light: not shown
# notes: copies: 2 + 2
# B30: H237-MB681/MRAL-k0 (antibody)
# heavy: B1 heavy with A230P, Y231K, L235D
# light: not shown
# notes: copies: 2 + 2
# B31: H237-MB682/MRAL-k0 (antibody)
# heavy: B1 heavy with A230P, Y231K, L235D
# light: not shown
# notes: copies: 2 + 2
# B32: H237-MB683/MRAL-k0 (antibody)
# heavy: B1 heavy with A230T, Y231K, L235D
# light: not shown
# notes: copies: 2 + 2
# B33: H237-MB684/MRAL-k0 (antibody)
# heavy: B1 heavy with E229Q, A230P, Y231K, L235D
# light: not shown
# notes: copies: 2 + 2
# Target: T1, mouse FcγRII extracellular domain, …
# Assay: SPR Biacore T200, KD ratio
# Experimental: (§1) Each altered antibody was analyzed for its interaction with each Fcγ receptor prepared above using Biacore T100 (GE Healthcare Japan Corp.), Biacore T200 (GE Healthcare Japan Corp.), Biacore A100, or Biacore 4000. The running buffer used was HBS-EP+ (GE Healthcare Japan Corp.). The assay temperature was set to 25° C. The sensor chips used were chips prepared by immobilizing Protein L (ACTIGEN or BioVision) onto Series S Sensor Chip CM5 (GE Healthcare Japan Corp.) or Series S Sensor Chip CM4 (GE Healthcare Japan Corp.) by the amine coupling method.
# (§2) In order to calculate the KD value of each altered antibody for FcγR, kinetic analysis was conducted according to the following method: first, the antibody of interest was captured onto any of these chips and allowed to interact with mFcγR diluted with a running buffer. For the obtained sensorgram, the assay results were globally fit into the 1:1 Langmuir binding model using Biacore Evaluation Software to calculate an association rate constant ka (L/mol/s) and a dissociation rate constant kd (1/s). From these values, the dissociation constant KD (mol/L) was calculated.
row,Binder,relative mFcγRII-binding activity (mIgG1 = 1) [fold]
1,B1,0.53

# Target: T2, mouse FcγRIII extracellular domain, …
# Assay: SPR Biacore T200, KD ratio
# Experimental: as §1, §2
row,Binder,relative mFcγRIII-binding activity (mIgG1 = 1) [fold]
1,B1,0.09

# Target: T3, mouse FcγRII
# Assay: SPR (Biacore), antibody captured on Protein L
# Experimental: as §1, §2
row,Binder,Kd
1,B2,115 nM and 250 nM
2,B3,180 nM and 307 nM

# Target: T4, mouse FcγRIII
# Assay: SPR (Biacore), antibody captured on Protein L
# Experimental: as §1, §2
row,Binder,Kd
1,B2,3230 nM and 9030 nM
2,B3,1420 nM and 2360 nM

# Target: T5, mouse FcγRII extracellular domain, …
# Assay: SPR (Biacore T200); KD of H237-mIgG1/MRAL-k0 / KD of variant
row,Binder,relative mFcγRII-binding activity (mIgG1 = 1) [fold]
1,B4,0.7
2,B5,1.24
3,B6,0.55
4,B7,0.26
5,B8,0.12
6,B9,0.34
7,B10,9.85
8,B11,3.14
9,B12,0.42
10,B13,2.66
11,B14,1.11
12,B15,0.81
13,B16,0.24
14,B17,10.9
15,B18,0.59
16,B19,4.06
17,B20,0.84
18,B21,1.63
19,B22,0.62
20,B23,0.23
21,B24,3.15
22,B25,3.83
23,B26,0.22
24,B27,8.03
25,B28,7.57
26,B29,8.97
27,B30,13.9
28,B31,14
29,B32,7.7
30,B33,5.37

# Target: T6, mouse FcγRIII extracellular domain, …
# Assay: as above
row,Binder,relative mFcγRIII-binding activity (mIgG1 = 1) [fold]
1,B4,0.11
2,B5,0.25
3,B6,0.1
4,B7,0.05
5,B8,0.06
6,B9,0.16
7,B10,4.4
8,B11,0.18
9,B12,0.13
10,B13,0.32
11,B14,0.09
12,B15,0.3
13,B16,0.06
14,B17,0.84
15,B18,0.14
16,B19,0.57
17,B20,0.15
18,B21,0.13
19,B22,0.16
20,B23,0.07
21,B24,0.23
22,B25,0.4
23,B26,0.12
24,B27,2.01
25,B28,1.68
26,B29,1.75
27,B30,1.83
28,B31,2.14
29,B32,0.9
30,B33,1.02
